Test results as given in the supplement of paper PMC10567573.

Experiment: protein stability index of a GFP-peptide fusion (GPS, HEK-293T) (PSI 1-6); higher = more stable
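Further: lentivirally expressed fusions sorted by FACS into six bins by GFP to DsRed ratio, PSI derived from sequencing read proportions per bin multiplied by bin number.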

## IMALVAAILLLVIIILIVMKYRT
parent: IOH7463_24, c terminus: native
  protein stability index: 2.83

## YARTPTLDPDTMHARLRLSADRLT
parent: IOH6488_45, c terminus: a fixed tail appended
  protein stability index: 2.62

## FLRGPSGPRFGPRNDKIKHVQNQV
parent: IOH7463_7, c terminus: a fixed tail appended
  protein stability index: 2.7

## DECEKAYFYMSCLVKHKRIHSREK
parent: IOH7272_73, c terminus: a fixed tail appended
  protein stability index: 2.53

## MTKAQESLTLEDVAVDFTWEEWQF
parent: IOH7272_1, c terminus: a fixed tail appended
  protein stability index: 3.04

## GSKFRYSGRTQAQTRRASALIDRP
parent: IOH6638_68, c terminus: a fixed tail appended
  protein stability index: 3.09

## AFGWFRCSSCQRSWASAQVQILCH
parent: IOH10686_9, c terminus: a fixed tail appended
  protein stability index: 2.29

## TYWEHWTSQGQVRMRLFGQRCQKC
parent: IOH10686_13, c terminus: a fixed tail appended
  protein stability index: 1.83

## EHERAHRGEKPHGCSLCGKAFYKR
parent: IOH7272_38, c terminus: a fixed tail appended
  protein stability index: 2.1

## FSPSQFLNFWNKQDTLELESPSLT
parent: IOH6886_76, c terminus: a fixed tail appended
  protein stability index: 2.12

## LTEHKRIHTGKKPHVCSLCGKAFY
parent: IOH7272_33, c terminus: a fixed tail appended
  protein stability index: 2.52

## VKKSCWTEEEDRIICEAHKVLGNR
parent: IOH6886_23, c terminus: a fixed tail appended
  protein stability index: 3.18

## NRFRVEISFHFEVTNHNIRLFEDV
parent: IOH10304_48, c terminus: a fixed tail appended
  protein stability index: 2.93

## RAQMIRNEYRKLHPVLHKEEKQHL
parent: IOH10304_30, c terminus: a fixed tail appended
  protein stability index: 3.05

## FVEDSFDPNINPTIGASFMTKTVQ [RAB22A WT]
parent: IOH10004_5, c terminus: a fixed tail appended
  protein stability index: 2.26

## LQRVLEHRRRNQLIKKKKEELEAK
parent: IOH10203_12, c terminus: a fixed tail appended
  protein stability index: 3.41

## AVNLSVSTLPSLREEEEQVRAHAP
parent: IOH6461_41, c terminus: a fixed tail appended
  protein stability index: 5.01

## NNSWIRKNSTMVNSEDIFLLLCLK
parent: IOH10304_60, c terminus: a fixed tail appended
  protein stability index: 2.69

## IAKHLKGRLGKQCRERWHNHLNPE
parent: IOH6886_19, c terminus: a fixed tail appended
  protein stability index: 1.82

## FCDMDKSLLCLLCSNSQEHGAHKH
parent: IOH10304_18, c terminus: a fixed tail appended
  protein stability index: 1.87

## FSSSSQEAFAASAVGSGERRGGGP
parent: IOH10718_37, c terminus: a fixed tail appended
  protein stability index: 3.33

## LFVTVTAVNLSVSTLPSLREEEEQ
parent: IOH6461_40, c terminus: a fixed tail appended
  protein stability index: 2.13

## YQAGKPDALTKLEQGEPLWTLEDE
parent: IOH7272_9, c terminus: a fixed tail appended
  protein stability index: 4.34

## SMQCKVILLDGSEYTCDVEKRSRG
parent: IOH6638_19, c terminus: a fixed tail appended
  protein stability index: 2.79

## RPFDCPVCNKKFKMKHHLTEHMKT
parent: IOH10718_86, c terminus: a fixed tail appended
  protein stability index: 2.37

## FPNRTDQQCQYRWLRVLNPDLVKG
parent: IOH6886_11, c terminus: a fixed tail appended
  protein stability index: 2.01

## REQADSCREQLDIMNDLSNRVWSI
parent: IOH6488_25, c terminus: a fixed tail appended
  protein stability index: 2.18

## MYKLSSEQFHEAASKMESTIKPRR [CHCHD6 WT]
parent: IOH6589_29, c terminus: a fixed tail appended
  protein stability index: 3.65

## HTGLKPYECGVCAKKFMWRDSFMR
parent: IOH10718_90, c terminus: a fixed tail appended
  protein stability index: 2.3

## LDMDEGTLSFIVDGQYLGVAFRGL [SPSB4 WT]
parent: IOH6956_31, c terminus: a fixed tail appended
  protein stability index: 2.49

## GPGFHAGTSALWRHLRSAHRRELE
parent: IOH6801_14, c terminus: a fixed tail appended
  protein stability index: 2.28

## KSCQACRLRKCYEVGMVKCGSRRE [ESR2 WT]
parent: IOH10714_34, c terminus: a fixed tail appended
  protein stability index: 1.85

## RDPFECNMCGYHSQDRYEFSSHIT
parent: IOH9679_75, c terminus: a fixed tail appended
  protein stability index: 1.89

## TYECRCIGEEKEMWNFGEKYARF [TIA1 WT]
parent: IOH10042_33, c terminus: native
  protein stability index: 1.9

## DMRDPTYRPLKQELQGLDYCKPTR [SPSB1 WT]
parent: IOH10100_3, c terminus: a fixed tail appended
  protein stability index: 3.17

## YHTGKTPFVCPECGQPCSQKSGLI
parent: IOH7272_62, c terminus: a fixed tail appended
  protein stability index: 1.66

## SDYISEFRFAPNHTKELEDKVIEL
parent: IOH6638_42, c terminus: a fixed tail appended
  protein stability index: 2.07

## FVDILESDLKDDDAVPPGMESLIS
parent: IOH6456_46, c terminus: a fixed tail appended
  protein stability index: 3.07

## YHSQDRYEFSSHITRGEHRFHMS
parent: IOH9679_77, c terminus: native
  protein stability index: 2.09

## YHNSPAYLAYINAKSRAEAALEEE [SMARCE1 WT]
parent: IOH7424_23, c terminus: a fixed tail appended
  protein stability index: 2.1

## LVAHQRYHTGKTPFVCPECGQPCS
parent: IOH7272_61, c terminus: a fixed tail appended
  protein stability index: 3.29

## TSGKRYVYRFVCDLQNLLGFTPEE [ETS2 WT]
parent: IOH10422_73, c terminus: a fixed tail appended
  protein stability index: 2.7

## HIKLHSGEKPFKCHLCNYACRRRD
parent: IOH9679_28, c terminus: a fixed tail appended
  protein stability index: 1.92

## QARLRDVSRREGALGWAPAAPPPL
parent: IOH6801_33, c terminus: a fixed tail appended
  protein stability index: 3.31

## SELGDYDPDECGSDYISEFRFAPN
parent: IOH6638_40, c terminus: a fixed tail appended
  protein stability index: 1.93

## HRRGLGVDSKPELQRVLEHRRRNQ
parent: IOH10203_10, c terminus: a fixed tail appended
  protein stability index: 3.91

## KKFLTLGSKFRYSGRTQAQTRRAS
parent: IOH6638_67, c terminus: a fixed tail appended
  protein stability index: 2.96

## ELKTFRLKTRSWAGERSRRELCSR
parent: IOH6456_93, c terminus: a fixed tail appended
  protein stability index: 3.35

## KSPIAPCSLDKRVILIFHCEFSSE
parent: IOH6456_79, c terminus: a fixed tail appended
  protein stability index: 2.62

## FLRQLPFRGDDGIFDDNFIEERKQ [SNX3 WT]
parent: IOH7529_17, c terminus: a fixed tail appended
  protein stability index: 3.4

## YQEIFQQLQRSWVKMDQKSKHLKE
parent: IOH10304_35, c terminus: a fixed tail appended
  protein stability index: 2.05

## AVLAASSPYFHDQVLLKGMTSISL
parent: IOH10718_13, c terminus: a fixed tail appended
  protein stability index: 2.63

## FRFAPNHTKELEDKVIELHKSHRG
parent: IOH6638_43, c terminus: a fixed tail appended
  protein stability index: 2.13
